Measurements from publication PMC12569377, “P-Rex1 limits the agonist-induced internalization of GPCRs independently of its Rac-GEF activity” (Cell Reports, 2025).
Blank lines part the entries; values can stand above or below the molecule they belong to.

What was measured:
[1] = molecular target: T1, GST-Grk2 (Homo sapiens, UniProt P25098); assay: ADP-Glo kinase assay with tubulin; format: biochemical; conditions: […] ATP, […] pig brain tubulin, […] MgCl2, pH […] °C; no P-Rex1
T1 construct: recombinant GST fusion from Sf9 cells, commercial
T1 sequence (P25098 1-689): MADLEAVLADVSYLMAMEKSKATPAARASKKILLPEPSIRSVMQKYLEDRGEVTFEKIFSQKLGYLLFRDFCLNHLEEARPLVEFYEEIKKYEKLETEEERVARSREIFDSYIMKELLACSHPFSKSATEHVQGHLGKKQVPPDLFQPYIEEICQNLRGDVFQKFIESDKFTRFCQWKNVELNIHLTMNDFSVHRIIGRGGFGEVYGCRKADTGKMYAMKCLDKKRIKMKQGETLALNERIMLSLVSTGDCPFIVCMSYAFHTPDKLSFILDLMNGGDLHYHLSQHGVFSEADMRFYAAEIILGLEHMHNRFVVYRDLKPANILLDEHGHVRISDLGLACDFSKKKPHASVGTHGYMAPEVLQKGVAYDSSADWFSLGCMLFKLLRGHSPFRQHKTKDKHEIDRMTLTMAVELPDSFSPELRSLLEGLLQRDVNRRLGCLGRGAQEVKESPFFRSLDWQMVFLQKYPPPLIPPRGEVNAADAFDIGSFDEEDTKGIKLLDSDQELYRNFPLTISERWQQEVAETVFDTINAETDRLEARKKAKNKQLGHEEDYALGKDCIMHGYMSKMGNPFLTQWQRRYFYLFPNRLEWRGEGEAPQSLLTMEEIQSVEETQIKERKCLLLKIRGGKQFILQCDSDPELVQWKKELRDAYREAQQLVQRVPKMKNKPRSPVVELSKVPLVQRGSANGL

[2] = molecular target: T2, GEF-dead EE-P-Rex1 (E56A, N238A) (human, UniProt Q8TCU6 1-1659, E56A | N238A); assay: pull-down; 5 pmol P-Rex1 or P-Rex2 protein (2.5 pmol for P-Rex1 mutants) with 5 pmol GST, GST-Grk2 or GST-Grk5 in 20 μL detergent-free buffer (50 mM HEPES pH 7.2, 150 mM NaCl), 1 h on ice; GST proteins isolated on magnetic glutathione agarose, 45 min at 4°C, 4 washes in lysis buffer 2 (1% NP-40); western blot with P-Rex1 or P-Rex2 and GST antibodies; conditions: both partners purified
T2 construct: P-Rex1, human, with point mutations E56A and N238A in the DH domain that abolish Rac-GEF activity; also called GEF-dead P-Rex1; source: baculovirus-infected Sf9 cells, purified using the EE tag
T2 sequence (Q8TCU6 whole entry E56A/N238A, the tested form may be a part): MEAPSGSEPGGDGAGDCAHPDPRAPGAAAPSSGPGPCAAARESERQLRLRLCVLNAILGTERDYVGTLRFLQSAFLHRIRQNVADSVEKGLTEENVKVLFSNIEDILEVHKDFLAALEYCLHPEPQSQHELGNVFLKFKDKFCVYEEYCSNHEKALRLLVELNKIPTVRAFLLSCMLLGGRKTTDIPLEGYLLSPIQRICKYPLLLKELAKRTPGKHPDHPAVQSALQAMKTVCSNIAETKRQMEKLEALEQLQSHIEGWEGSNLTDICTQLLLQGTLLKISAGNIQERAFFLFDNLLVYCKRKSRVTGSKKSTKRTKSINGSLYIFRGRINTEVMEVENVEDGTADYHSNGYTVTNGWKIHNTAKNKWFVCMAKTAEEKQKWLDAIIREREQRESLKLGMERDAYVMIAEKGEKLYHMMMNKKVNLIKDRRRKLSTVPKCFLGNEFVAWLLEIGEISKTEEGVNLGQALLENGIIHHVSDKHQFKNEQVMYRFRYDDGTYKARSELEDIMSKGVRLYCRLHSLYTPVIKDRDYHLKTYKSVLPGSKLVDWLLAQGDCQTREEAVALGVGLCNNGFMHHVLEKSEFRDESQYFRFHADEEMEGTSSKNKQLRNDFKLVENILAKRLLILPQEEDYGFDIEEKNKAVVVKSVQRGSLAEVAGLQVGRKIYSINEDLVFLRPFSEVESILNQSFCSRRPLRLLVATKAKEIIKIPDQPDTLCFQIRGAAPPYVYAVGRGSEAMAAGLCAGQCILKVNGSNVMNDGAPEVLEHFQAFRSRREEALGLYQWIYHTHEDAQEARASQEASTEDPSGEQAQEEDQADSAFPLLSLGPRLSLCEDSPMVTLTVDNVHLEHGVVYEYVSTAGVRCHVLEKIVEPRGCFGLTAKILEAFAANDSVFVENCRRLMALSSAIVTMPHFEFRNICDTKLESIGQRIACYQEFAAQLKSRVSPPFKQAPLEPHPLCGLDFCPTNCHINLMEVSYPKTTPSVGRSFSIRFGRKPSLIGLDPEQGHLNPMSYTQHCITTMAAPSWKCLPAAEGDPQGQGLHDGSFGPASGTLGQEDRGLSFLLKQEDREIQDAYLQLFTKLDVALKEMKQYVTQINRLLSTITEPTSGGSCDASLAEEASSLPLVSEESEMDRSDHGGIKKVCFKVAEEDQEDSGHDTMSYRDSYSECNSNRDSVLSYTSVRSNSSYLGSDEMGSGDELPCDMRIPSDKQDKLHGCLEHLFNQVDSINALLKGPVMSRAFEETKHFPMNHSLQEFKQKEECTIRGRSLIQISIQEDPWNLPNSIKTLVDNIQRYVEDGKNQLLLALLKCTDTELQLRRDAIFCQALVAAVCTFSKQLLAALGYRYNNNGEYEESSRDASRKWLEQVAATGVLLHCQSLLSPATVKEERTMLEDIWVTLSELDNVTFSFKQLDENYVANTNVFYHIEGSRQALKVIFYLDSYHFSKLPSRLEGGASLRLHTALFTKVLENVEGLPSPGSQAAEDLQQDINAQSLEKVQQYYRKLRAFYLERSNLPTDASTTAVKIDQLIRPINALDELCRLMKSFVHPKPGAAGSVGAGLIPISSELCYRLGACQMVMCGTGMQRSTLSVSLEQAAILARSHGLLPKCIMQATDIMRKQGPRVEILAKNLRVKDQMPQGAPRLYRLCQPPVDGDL

[3] = molecular target: T3, Recombinant human wild type His-P-Rex2 (human, UniProt Q70Z35 1-1606); assay: as above; conditions: both partners purified
T3 construct: source: baculovirus-infected Sf9 cells, purified (Ni-NTA agarose, PD-10 desalting); not shown: 6His, N-terminal, kept
T3 sequence (Q70Z35 whole entry): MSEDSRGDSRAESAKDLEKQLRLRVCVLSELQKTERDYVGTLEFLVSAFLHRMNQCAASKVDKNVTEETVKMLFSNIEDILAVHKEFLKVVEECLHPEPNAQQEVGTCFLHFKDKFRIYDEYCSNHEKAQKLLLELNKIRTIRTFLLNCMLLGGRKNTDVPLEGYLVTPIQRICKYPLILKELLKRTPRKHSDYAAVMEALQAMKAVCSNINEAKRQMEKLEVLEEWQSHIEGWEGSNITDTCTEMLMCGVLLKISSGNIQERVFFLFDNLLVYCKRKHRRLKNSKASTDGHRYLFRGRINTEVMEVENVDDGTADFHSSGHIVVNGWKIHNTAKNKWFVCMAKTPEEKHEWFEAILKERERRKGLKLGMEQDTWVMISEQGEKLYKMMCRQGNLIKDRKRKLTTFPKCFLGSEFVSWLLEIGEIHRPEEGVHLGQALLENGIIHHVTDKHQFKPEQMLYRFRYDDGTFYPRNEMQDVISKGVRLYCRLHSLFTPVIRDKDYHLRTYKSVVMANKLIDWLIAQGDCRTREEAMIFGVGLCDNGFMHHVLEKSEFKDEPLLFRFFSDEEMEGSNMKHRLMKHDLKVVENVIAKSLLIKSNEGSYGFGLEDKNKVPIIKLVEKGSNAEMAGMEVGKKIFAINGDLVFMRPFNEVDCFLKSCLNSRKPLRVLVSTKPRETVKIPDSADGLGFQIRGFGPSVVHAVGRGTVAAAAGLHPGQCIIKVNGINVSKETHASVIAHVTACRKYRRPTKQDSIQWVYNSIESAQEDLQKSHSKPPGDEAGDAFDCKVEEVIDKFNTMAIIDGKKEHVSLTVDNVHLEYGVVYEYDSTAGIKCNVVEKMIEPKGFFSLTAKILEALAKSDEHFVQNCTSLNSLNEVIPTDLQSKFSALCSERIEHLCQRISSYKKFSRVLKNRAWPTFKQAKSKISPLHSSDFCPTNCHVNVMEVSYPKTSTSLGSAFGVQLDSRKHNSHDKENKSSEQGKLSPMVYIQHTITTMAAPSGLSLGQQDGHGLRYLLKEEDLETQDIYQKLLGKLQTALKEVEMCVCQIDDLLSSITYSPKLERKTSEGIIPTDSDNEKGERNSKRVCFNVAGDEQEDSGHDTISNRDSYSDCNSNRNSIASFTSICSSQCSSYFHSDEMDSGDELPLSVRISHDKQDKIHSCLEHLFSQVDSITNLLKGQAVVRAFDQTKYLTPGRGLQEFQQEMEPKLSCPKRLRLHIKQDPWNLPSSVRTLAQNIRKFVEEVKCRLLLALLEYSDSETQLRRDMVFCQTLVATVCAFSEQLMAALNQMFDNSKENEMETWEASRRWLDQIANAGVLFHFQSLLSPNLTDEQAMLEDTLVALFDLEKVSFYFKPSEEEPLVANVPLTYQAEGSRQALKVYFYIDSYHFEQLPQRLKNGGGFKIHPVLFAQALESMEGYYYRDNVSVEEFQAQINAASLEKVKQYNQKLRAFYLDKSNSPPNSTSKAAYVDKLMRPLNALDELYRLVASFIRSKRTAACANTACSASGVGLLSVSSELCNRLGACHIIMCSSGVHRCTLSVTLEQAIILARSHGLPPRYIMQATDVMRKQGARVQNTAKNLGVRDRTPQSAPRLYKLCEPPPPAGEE

[4] = molecular target: T4, GEF-dead His-P-Rex2 (P-Rex2 E30A,N212A) (human, UniProt Q70Z35 1-1606, E30A | N212A); assay: as above; conditions: both partners purified
T4 construct: P-Rex2, human, with alanine mutations at Glu30 and Asn212 in the catalytic DH domain; also called GEF-dead P-Rex2; source: baculovirus-infected Sf9 cells, purified (Ni-NTA agarose, PD-10 desalting); not shown: 6His, N-terminal, kept
T4 sequence (Q70Z35 whole entry E30A/N212A, the tested form may be a part): as the sequence (Q70Z35 whole entry) above, with E30A, N212A counted along it

[5] = molecular target: T5, Recombinant human wild type EE-P-Rex1 (human, UniProt Q8TCU6 1-1659); assay: pull-down; as the GST-Grk2 pull-down of EE-P-Rex1, with increasing concentrations of prenylated EE-Gβ1γ2 (up to 20 pmol per sample) added during the binding assay; 0.008% cholate in all samples; conditions: both partners purified
T5 construct: source: baculovirus-infected Sf9 cells, purified using the EE tag
T5 sequence (Q8TCU6 whole entry): as the sequence (Q8TCU6 whole entry E56A/N238A, the tested form may be a part) above, with A56E, A238N counted along it

Molecule: Nc1ncnc2c1ncn2[C@@H]1O[C@H](COP(=O)(O)OP(=O)(O)OP(=O)(O)O)[C@@H](O)[C@H]1O [ATP]
ADP-Glo kinase assay with tubulin [1]: GST-Grk2 was able to phosphorylate tubulin

binding result [2]: binds
binding result [3]: binds
binding result [4]: binds
binding result [5]: binds
B1: Recombinant human GST-Grk2 (enzyme, UniProt P25098 1-689, looked up)
chain: T1 sequence (P25098 1-689)
notes: G protein-coupled receptor kinase 2 (Grk2), human, Sf9 cell-derived recombinant GST fusion; also called G protein-coupled receptor kinase 2; source: bought: Abcam (ab125620), Sf9 cell-derived, purified recombinant
